Reference: US20170190787A1 (INSERM INSTITUT NATIONAL DE LA SANT ET DE LA RECHERCHE M …, published 2017)

Key:
[1] = target: T1, EGFR fused to SNAP-tag, expressed on transfected HEK293T cells (UniProt P00533 25-1210, terbium cryptate donor fluorochrome (SNAP-Tb) covalently on the SNAP-tag); test: time resolved fluorescence (HTRF) on EGFR-ST transfected HEK293T cells; apparent affinity
T1 construct: whole, on cells; also called EGFR-ST; ErbB1-ST; not shown: SNAP-tag and FLAG tag (Cisbio plasmid)

[2] = target: T1, EGFR fused to SNAP-tag, expressed on …; test: HTRF on living cells; D4E in the presence of a large amount of monovalent E10 blocking the E10 epitope
[3] = target: T1, EGFR fused to SNAP-tag, expressed on …; test: HTRF on living cells; D4E in the presence of a large amount of monovalent D10 blocking the D10 epitope

Binder	Kd [1]	Kd [2]	Kd [3]
biparatopic single domain antibody D6E (D10 - 6x(G4S) linker - E10) (bispecific antibody, also called bisdAb D6E) EVQLQESGGGLVQAGGSLRLSCAVSISRTIFSLYAMEWYRQPPGKQRDLVARIYRSGDTNYADSVKGRFTISRDNAKNTVYLQMNSLKPEDTGVYYCNSPAQDWPWGQGTQVTVSSAAAGGGGSGGGGSGGGGSGGGGSGGGGSGGGGSMAQVQLQESGGGLAQAGGSLRLSCAASGRTLSSYDMGWFRQAPGKEREFVTAINWGDLSTYYADSVKGRFTISRDNAKNTVYLQMNSLKPEDTAVYYCAARLRYTVSDPIFSRPDRYNYWGQGTQVTVSSAAAEQKLISEEDLNGAAHHHHHHGS	6 nM		
biparatopic single domain antibody D2E (D10 - 2x(G4S) linker - E10) (bispecific antibody, also called bisdAb D2E) EVQLQESGGGLVQAGGSLRLSCAVSISRTIFSLYAMEWYRQPPGKQRDLVARIYRSGDTNYADSVKGRFTISRDNAKNTVYLQMNSLKPEDTGVYYCNSPAQDWPWGQGTQVTVSSAAAGGGGSGGGGSMAQVQLQESGGGLAQAGGSLRLSCAASGRTLSSYDMGWFRQAPGKEREFVTAINWGDLSTYYADSVKGRFTISRDNAKNTVYLQMNSLKPEDTAVYYCAARLRYTVSDPIFSRPDRYNYWGQGTQVTVSSAAAEQKLISEEDLNGAAHHHHHHGS	6 nM		
biparatopic single domain antibody D4E (D10 - 4x(G4S) linker - E10) (bispecific antibody, also called bisdAb D4E) EVQLQESGGGLVQAGGSLRLSCAVSISRTIFSLYAMEWYRQPPGKQRDLVARIYRSGDTNYADSVKGRFTISRDNAKNTVYLQMNSLKPEDTGVYYCNSPAQDWPWGQGTQVTVSSAAAGGGGSGGGGSGGGGSGGGGSMAQVQLQESGGGLAQAGGSLRLSCAASGRTLSSYDMGWFRQAPGKEREFVTAINWGDLSTYYADSVKGRFTISRDNAKNTVYLQMNSLKPEDTAVYYCAARLRYTVSDPIFSRPDRYNYWGQGTQVTVSSAAAEQKLISEEDLNGAAHHHHHHGS	6 nM	22 nM	100 nM
